Data taken from patent US20160002331A1.
Like-named read-outs stand apart in the source and are kept apart here.

Columns and labels:
[1] = biological target: full-length human Notch1 expressed on the cell surface (human) (UniProt P46531); assay: cell-based or functional assay
[2] = biological target: full-length human Notch1 expressed on the cell surface (human) (UniProt P46531); assay: cell-based or functional assay; remark: listed apart in the source
[3] = biological target: full-length mouse Notch1 expressed on the cell surface of U-2 OS cells (mouse) (UniProt Q01705); assay: cell-based or functional assay
[4] = biological target: Notch1 receptor with L1575P mutation (HPB-ALL cells) (UniProt P46531); assay: cell-based or functional assay
[5] = biological target: Notch1 receptor with L1594P mutation (ALL-SIL cells) (UniProt P46531); assay: cell-based or functional assay
[6] = biological target: Notch1 receptor with L1594P/D1610V mutations (DND-41 cells) (UniProt P46531); assay: cell-based or functional assay
[7] = biological target: Notch1 receptor with L1601P mutation (MOLT-4 cells) (UniProt P46531); assay: cell-based or functional assay
[8] = biological target: Notch1 receptor with a 12 amino acid insertion at position 1595 (CCRF-CEM cells) (UniProt P46531); assay: cell-based or functional assay
[9] = biological target: Notch1 receptor with a 17 amino acid insertion at position 1740 (Jurkat cells) (UniProt P46531); assay: cell-based or functional assay
[10] = biological target: full-length mouse Notch1 expressed on the cell surface of U-2 OS cells (mouse) (UniProt Q01705); assay: cell-based or functional assay; remark: listed apart in the source
[11] = biological target: human Notch1 NRR_Avi_His recombinant protein (human) (UniProt P46531); assay: SPR (Biacore T100), antibody captured by anti-human IgG-Fc, NRR_Avi_His as analyte, 1:1 Langmuir model

Sequence of full-length mouse Notch1 expressed on the cell surface of U-2 OS cells (mouse) (Q01705 19-2531): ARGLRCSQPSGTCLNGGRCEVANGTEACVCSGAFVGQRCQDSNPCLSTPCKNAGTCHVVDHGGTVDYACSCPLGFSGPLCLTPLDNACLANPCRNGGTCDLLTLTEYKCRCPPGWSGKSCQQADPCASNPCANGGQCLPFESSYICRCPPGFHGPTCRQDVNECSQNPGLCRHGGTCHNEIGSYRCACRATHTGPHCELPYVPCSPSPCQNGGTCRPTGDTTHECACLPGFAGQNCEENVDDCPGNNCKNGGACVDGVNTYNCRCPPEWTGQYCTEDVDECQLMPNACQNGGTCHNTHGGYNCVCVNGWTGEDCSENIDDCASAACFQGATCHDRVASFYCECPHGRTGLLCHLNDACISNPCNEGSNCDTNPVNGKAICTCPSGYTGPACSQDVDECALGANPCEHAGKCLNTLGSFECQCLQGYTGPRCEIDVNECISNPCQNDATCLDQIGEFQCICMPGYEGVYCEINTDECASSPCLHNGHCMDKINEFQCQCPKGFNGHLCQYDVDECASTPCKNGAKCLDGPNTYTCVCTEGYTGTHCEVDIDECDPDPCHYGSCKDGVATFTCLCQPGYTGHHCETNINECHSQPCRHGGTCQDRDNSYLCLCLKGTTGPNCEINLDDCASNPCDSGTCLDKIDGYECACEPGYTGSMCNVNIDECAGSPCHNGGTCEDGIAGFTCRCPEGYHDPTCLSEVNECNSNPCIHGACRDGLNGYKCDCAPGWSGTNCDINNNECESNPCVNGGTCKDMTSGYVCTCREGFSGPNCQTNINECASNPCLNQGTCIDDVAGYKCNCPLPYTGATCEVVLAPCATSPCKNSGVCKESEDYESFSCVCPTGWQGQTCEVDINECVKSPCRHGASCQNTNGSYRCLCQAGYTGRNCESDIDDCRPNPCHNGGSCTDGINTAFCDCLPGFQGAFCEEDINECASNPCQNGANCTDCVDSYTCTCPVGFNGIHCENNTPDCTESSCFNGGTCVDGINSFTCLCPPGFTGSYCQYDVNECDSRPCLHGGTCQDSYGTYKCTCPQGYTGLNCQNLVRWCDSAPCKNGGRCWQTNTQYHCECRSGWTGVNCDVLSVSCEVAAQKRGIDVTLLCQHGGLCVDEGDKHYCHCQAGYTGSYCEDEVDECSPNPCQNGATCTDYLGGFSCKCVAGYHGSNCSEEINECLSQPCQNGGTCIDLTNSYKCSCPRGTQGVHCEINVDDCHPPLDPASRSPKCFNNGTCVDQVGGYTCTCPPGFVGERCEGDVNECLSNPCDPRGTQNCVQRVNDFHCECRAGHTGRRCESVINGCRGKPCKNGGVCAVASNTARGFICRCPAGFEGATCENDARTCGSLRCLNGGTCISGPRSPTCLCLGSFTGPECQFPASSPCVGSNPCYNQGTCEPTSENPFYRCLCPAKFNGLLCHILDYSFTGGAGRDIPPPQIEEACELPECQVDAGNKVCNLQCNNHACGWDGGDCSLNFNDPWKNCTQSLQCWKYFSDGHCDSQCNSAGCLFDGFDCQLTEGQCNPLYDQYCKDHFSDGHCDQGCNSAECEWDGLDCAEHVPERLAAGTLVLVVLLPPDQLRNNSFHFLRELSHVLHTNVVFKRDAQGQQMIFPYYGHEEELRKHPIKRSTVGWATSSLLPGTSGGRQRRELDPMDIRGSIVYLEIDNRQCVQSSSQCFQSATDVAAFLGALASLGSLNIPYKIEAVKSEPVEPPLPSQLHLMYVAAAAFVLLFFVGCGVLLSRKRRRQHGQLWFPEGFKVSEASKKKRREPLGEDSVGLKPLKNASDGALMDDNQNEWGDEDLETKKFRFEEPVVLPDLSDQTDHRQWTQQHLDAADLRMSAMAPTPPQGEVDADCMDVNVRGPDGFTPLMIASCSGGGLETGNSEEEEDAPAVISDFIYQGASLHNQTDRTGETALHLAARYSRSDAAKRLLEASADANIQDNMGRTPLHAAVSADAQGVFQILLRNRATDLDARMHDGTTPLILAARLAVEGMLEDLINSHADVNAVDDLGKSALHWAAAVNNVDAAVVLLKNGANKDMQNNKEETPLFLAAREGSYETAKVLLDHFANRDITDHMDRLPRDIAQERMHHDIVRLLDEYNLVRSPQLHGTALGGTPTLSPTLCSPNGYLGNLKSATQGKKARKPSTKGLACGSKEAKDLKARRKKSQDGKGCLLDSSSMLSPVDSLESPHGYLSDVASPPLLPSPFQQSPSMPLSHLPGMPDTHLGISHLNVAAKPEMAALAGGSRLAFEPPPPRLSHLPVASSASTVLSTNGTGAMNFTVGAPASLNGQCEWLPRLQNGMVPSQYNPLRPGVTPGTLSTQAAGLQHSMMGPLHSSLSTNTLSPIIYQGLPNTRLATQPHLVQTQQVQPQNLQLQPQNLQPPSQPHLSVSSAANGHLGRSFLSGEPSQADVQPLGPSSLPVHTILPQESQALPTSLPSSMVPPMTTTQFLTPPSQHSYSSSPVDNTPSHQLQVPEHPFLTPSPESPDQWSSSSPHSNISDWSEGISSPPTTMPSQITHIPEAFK
Sequence of Notch1 receptor with a 17 amino acid insertion at position 1740 (Jurkat cells) (P46531 19-2555): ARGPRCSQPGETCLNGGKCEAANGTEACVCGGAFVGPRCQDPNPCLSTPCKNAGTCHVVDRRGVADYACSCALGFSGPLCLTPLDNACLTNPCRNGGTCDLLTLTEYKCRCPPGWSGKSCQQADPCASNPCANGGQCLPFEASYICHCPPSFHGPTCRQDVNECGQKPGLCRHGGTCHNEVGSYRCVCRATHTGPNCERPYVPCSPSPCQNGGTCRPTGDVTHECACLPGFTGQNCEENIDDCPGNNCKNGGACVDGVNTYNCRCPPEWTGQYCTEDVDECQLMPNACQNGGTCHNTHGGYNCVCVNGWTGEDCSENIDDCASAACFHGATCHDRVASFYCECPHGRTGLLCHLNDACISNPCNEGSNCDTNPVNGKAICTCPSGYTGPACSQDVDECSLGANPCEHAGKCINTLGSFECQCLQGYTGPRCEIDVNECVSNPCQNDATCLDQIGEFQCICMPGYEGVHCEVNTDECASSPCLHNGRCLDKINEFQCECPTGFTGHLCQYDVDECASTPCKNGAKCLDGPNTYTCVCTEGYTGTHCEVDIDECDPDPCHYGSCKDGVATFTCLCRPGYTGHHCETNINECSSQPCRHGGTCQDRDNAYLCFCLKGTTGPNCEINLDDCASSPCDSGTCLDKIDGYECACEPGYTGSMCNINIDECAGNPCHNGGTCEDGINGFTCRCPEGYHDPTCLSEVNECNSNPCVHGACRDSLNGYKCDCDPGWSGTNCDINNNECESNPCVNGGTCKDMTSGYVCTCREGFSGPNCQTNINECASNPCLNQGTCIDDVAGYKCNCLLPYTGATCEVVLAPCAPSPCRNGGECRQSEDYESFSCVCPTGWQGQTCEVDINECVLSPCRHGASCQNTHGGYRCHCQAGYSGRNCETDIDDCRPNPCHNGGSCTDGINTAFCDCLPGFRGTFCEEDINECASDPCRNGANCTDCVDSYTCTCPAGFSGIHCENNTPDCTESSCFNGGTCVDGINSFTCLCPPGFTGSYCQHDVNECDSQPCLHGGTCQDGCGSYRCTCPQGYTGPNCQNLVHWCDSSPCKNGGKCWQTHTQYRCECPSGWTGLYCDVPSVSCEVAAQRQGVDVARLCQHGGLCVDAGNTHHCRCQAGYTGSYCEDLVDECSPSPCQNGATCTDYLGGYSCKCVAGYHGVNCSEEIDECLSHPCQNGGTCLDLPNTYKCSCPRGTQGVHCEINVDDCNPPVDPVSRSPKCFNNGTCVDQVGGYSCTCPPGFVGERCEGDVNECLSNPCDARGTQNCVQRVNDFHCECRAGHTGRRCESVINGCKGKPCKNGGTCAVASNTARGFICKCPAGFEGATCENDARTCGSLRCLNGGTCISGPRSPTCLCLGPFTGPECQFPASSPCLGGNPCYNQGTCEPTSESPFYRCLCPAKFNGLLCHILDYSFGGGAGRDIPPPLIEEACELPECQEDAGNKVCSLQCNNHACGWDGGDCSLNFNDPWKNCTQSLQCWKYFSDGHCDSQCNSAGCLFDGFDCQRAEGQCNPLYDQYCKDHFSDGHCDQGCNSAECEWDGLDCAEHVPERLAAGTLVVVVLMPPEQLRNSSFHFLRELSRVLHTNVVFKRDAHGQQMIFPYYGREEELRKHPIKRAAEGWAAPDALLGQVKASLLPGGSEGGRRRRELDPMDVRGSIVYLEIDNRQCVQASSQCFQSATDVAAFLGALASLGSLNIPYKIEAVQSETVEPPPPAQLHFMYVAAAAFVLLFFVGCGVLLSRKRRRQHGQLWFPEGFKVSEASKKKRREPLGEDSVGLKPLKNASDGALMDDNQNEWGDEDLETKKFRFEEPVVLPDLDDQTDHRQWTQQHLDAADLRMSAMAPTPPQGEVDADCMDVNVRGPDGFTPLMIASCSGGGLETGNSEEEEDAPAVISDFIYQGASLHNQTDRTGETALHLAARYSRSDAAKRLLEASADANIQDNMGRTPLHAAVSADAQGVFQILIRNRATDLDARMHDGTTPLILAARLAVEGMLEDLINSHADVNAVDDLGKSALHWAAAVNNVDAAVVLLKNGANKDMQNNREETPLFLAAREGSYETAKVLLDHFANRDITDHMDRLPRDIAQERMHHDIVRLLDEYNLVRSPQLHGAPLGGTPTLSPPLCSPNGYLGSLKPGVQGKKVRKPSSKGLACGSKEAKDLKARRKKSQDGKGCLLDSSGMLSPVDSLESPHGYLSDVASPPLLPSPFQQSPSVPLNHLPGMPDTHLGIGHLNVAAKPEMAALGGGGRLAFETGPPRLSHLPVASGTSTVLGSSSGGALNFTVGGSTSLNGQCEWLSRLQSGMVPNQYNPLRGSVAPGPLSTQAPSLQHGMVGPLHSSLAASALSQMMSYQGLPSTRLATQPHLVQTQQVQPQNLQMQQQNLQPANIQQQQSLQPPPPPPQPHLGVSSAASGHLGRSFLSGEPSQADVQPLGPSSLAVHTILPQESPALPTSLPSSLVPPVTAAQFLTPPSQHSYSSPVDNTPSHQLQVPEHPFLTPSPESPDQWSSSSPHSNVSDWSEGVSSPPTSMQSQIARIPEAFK
Sequence of Notch1 receptor with L1594P mutation (ALL-SIL cells) (P46531 19-2555, stated change not applied): as the sequence (P46531 19-2555) above
Sequence of Notch1 receptor with L1594P/D1610V mutations (DND-41 cells) (P46531 19-2555, stated change not applied): as the sequence (P46531 19-2555) above
Sequence of Notch1 receptor with L1601P mutation (MOLT-4 cells) (P46531 19-2555, stated change not applied): as the sequence (P46531 19-2555) above

## control anti-E. tenella antibody
[1]
  Firefly/Renilla Luminescence, human Notch1 reporter cells + 5 mM EDTA, 0.01 µg/mL antibody (Firefly/Renilla ratio): 267
  Firefly/Renilla Luminescence, human Notch1 reporter cells + 5 mM EDTA, 0.1 µg/mL antibody (Firefly/Renilla ratio): 299
  Firefly/Renilla Luminescence, human Notch1 reporter cells + 5 mM EDTA, 1 µg/mL antibody (Firefly/Renilla ratio): 278
  Firefly/Renilla Luminescence, human Notch1 reporter cells + 5 mM EDTA, 10 µg/mL antibody (Firefly/Renilla ratio): 257
  Firefly/Renilla Luminescence, human Notch1 reporter cells + 5 mM EDTA, 30 µg/mL antibody (Firefly/Renilla ratio): 229

## A2 antibody (Wu, Y. et al., Nature 464:1052-1057, 2010)
[2]
  Neutralization activity (Human RGA), % Inhibition: 99.1%
  Neutralization activity (Human RGA), IC50: 0.27 nM
[3]
  Neutralization activity (murine RGA), % Inhibition: 82%
  Neutralization activity (murine RGA), IC50: 0.36 nM
[4]
  IC50, MTS viability assay of HPB-ALL leukemia cells: 1.85 nM
  Normalized Notch1^ICD level, HPB-ALL cells, 0.001 µg/ml antibody (relative to untreated): 0.852
  Normalized Notch1^ICD level, HPB-ALL cells, 0.01 µg/ml antibody (relative to untreated): 1.15
  Normalized Notch1^ICD level, HPB-ALL cells, 0.1 µg/ml antibody (relative to untreated): 0.33
  Normalized Notch1^ICD level, HPB-ALL cells, 1 µg/ml antibody (relative to untreated): 0.038
  Normalized Notch1^ICD level, HPB-ALL cells, 10 µg/ml antibody (relative to untreated): 0.041
[5]
  Normalized Notch1^ICD level, ALL-SIL cells, 0.001 µg/ml antibody (relative to untreated): 1.56
  Normalized Notch1^ICD level, ALL-SIL cells, 0.01 µg/ml antibody (relative to untreated): 1.31
  Normalized Notch1^ICD level, ALL-SIL cells, 0.1 µg/ml antibody (relative to untreated): 0.068
  Normalized Notch1^ICD level, ALL-SIL cells, 1 µg/ml antibody (relative to untreated): 0.033
  Normalized Notch1^ICD level, ALL-SIL cells, 10 µg/ml antibody (relative to untreated): 0.043
[6]
  Normalized Notch1^ICD level, DND-41 cells, 0.001 µg/ml antibody (relative to untreated): 0.787
  Normalized Notch1^ICD level, DND-41 cells, 0.01 µg/ml antibody (relative to untreated): 0.84
  Normalized Notch1^ICD level, DND-41 cells, 0.1 µg/ml antibody (relative to untreated): 0.479
  Normalized Notch1^ICD level, DND-41 cells, 1 µg/ml antibody (relative to untreated): 0.199
  Normalized Notch1^ICD level, DND-41 cells, 10 µg/ml antibody (relative to untreated): 0.114
[7]
  Normalized Notch1^ICD level, MOLT-4 cells, 0.01 µg/ml antibody (relative to untreated): 0.962
  Normalized Notch1^ICD level, MOLT-4 cells, 0.1 µg/ml antibody (relative to untreated): 0.644
  Normalized Notch1^ICD level, MOLT-4 cells, 10 µg/ml antibody (relative to untreated): 0.043
[8]
  Normalized Notch1^ICD level, CCRF-CEM cells, 0.001 µg/ml antibody (relative to untreated): 1.12
  Normalized Notch1^ICD level, CCRF-CEM cells, 0.01 µg/ml antibody (relative to untreated): 1.28
  Normalized Notch1^ICD level, CCRF-CEM cells, 0.1 µg/ml antibody (relative to untreated): 0.424
  Normalized Notch1^ICD level, CCRF-CEM cells, 1 µg/ml antibody (relative to untreated): 0.048
  Normalized Notch1^ICD level, CCRF-CEM cells, 10 µg/ml antibody (relative to untreated): 0.027
[9]
  Normalized Notch1^ICD level, Jurkat cells, 0.001 µg/ml antibody (relative to untreated): 1.2
  Normalized Notch1^ICD level, Jurkat cells, 0.01 µg/ml antibody (relative to untreated): 1.17
  Normalized Notch1^ICD level, Jurkat cells, 0.1 µg/ml antibody (relative to untreated): 0.983
  Normalized Notch1^ICD level, Jurkat cells, 1 µg/ml antibody (relative to untreated): 1.15
  Normalized Notch1^ICD level, Jurkat cells, 10 µg/ml antibody (relative to untreated): 1.59
[1]
  Firefly/Renilla Luminescence, human Notch1 reporter cells + 5 mM EDTA, 0.01 µg/mL antibody (Firefly/Renilla ratio): 312
  Firefly/Renilla Luminescence, human Notch1 reporter cells + 5 mM EDTA, 0.1 µg/mL antibody (Firefly/Renilla ratio): 172
  Firefly/Renilla Luminescence, human Notch1 reporter cells + 5 mM EDTA, 1 µg/mL antibody (Firefly/Renilla ratio): 89.9
  Firefly/Renilla Luminescence, human Notch1 reporter cells + 5 mM EDTA, 10 µg/mL antibody (Firefly/Renilla ratio): 63.5
  Firefly/Renilla Luminescence, human Notch1 reporter cells + 5 mM EDTA, 30 µg/mL antibody (Firefly/Renilla ratio): 55.2
  IC50, Notch1 signaling inhibition co-culture reporter assay: 0.18 nM
  IC50, human Notch1 reporter gene co-culture assay (DLL4-HEK293): 0.31 nM
  Maximal Inhibition (%), Notch1 signaling inhibition co-culture reporter assay: 97.7%
  Neutralization activity (Human RGA), % Inhibition (maximal): 100%
  Neutralization activity (Human RGA), IC50: 0.3 nM
  Normalized Notch1^ICD level, CCD1076SK fibroblasts on DLL4, 0.001 µg/ml antibody (relative to untreated): 0.748
  Normalized Notch1^ICD level, CCD1076SK fibroblasts on DLL4, 0.01 µg/ml antibody (relative to untreated): 0.402
  Normalized Notch1^ICD level, CCD1076SK fibroblasts on DLL4, 0.1 µg/ml antibody (relative to untreated): 0.003
  Normalized Notch1^ICD level, CCD1076SK fibroblasts on DLL4, 1 µg/ml antibody (relative to untreated): 0.003
  Normalized Notch1^ICD level, CCD1076SK fibroblasts on DLL4, 10 µg/ml antibody (relative to untreated): 0.006
[10]
  IC50, mouse Notch1 reporter gene co-culture assay (DLL4-HEK293): 0.32 nM
  Neutralization activity (murine RGA), % Inhibition (maximal): 86%
  Neutralization activity (murine RGA), IC50: 0.2 nM
[11]
  Kd: 2.94 nM
